Data from patent US20090317428A1.

Biological target: HLA-DR molecules of the human B-lymphoblastoid cell line Awells (HLA-DRB1*0401, HLA-DRB4*0101) (human)
Assay: cell-based or functional assay

B1: L243 (anti-HLA-DR) (antibody, from another filing, V domains shown)
VH: QIQLVQSGPELKKPGETVKISCKASGFTFTNYGMNWVKQAPGKGLKWMGWINTYTREPTYADDFKGRFAFSLETSASTAYLQINNLKNEDTAKYFCARDITAVVPTGFDYWGQGTTLTVSS
VL: DIQMTQSPASLSVSVGETVTITCRASENIYSNLAWYRQKQGKSPQLLVFAASNLADGVPSRFSGSGSGTQYSLKINSLQSEDFGDYYCQHFWTTPWAFGGGTNLEIKR
inhibition of T-helper cell line activation by Awells-Ii-cyclin D1 transfectants: 71.2%
